{"source": "the DeepSol protein solubility set"}
{"assay": "soluble on expression in E. coli; label from the status in PepcDB or PDB records"}
{"sequence": "GSHMLEVLTQKHKPAESQQQAAETEGSCNKKDQNECKSPCKWHNDAENKKCTLDKEEAKKVADETAKDGKTGNTNTTGSS", "soluble on expression in E. coli": "soluble"}
{"sequence": "GSHMSQSFGRVLTIVHSDCALLERDGNISLLSLPVAERWLRQAQLTPGEAPVCAQPLLIPLRLKVSAEEKSALEKAQSALAELGIDFQSDAQHVTIRAVPLPLRQQNLQILIPELIGYLAKQSVFEPGNIAQWIARNLMSEHAQWSMAQAITLLADVERLCPQLVKTPPGGLLQSVDLHPAIKALKDE", "soluble on expression in E. coli": "soluble"}
{"sequence": "GSHMTTSSRYKTELCRTYSESGRCRYGAKCQFAHGLGELRQANRHPKYKTELCHKFKLQGRCPYGSRCHFIHNPTED", "soluble on expression in E. coli": "soluble"}
{"sequence": "GSHSLRYFYTAVSRPGLGEPRFIAVGYVDDTEFVRFDSDAENPRMEPRARWMEREGPEYWEQQTRIAKEWEQIYRVDLRTLRGYYNQSEGGSHTIQEMYGCDVGSDGSLLRGYRQDAYDGRDYIALNEDLKTWTAADFAAQITRNKWERARYAERLRAYLEGTCVEWLSRYLELGKETLLRSDPPEAHVTLHPRPEGDVTLRCWALGFYPADITLTWQLNGEDLTQDMELVETRPAGDGTFQKWASVVVPLGKEQNYTCRVEHEGLPKPLSQRWEPLLEHHHHHH", "soluble on expression in E. coli": "soluble"}
{"sequence": "GSLATCIGEKIEDFKVGNLLGKGSFAGVYRAESIHTGLEVAIKMIDKKAMYKAGMVQRVQNEVKIHCQLKHPSILELYNYFEDSNYVYLVLEMCHNGEMNRYLKNRVKPFSENEARHFMHQIITGMLYLHSHGILHRDLTLSNLLLTRNMNIKIADFGLATQLKMPHEKHYTLCGTPNYISPEIATRSAHGLESDVWSLGCMFYTLLIGRPPFDTDTVKNTLNKVVLADYEMPSFLSIEAKDLIHQLLRRNPADRLSLSSVLDHPFMSRNSSTKSKDLGTVEDSIDSGHATISTAITASSSTSISGSLFDKRRLLIGQPLPNKMTVFPKEG", "soluble on expression in E. coli": "soluble"}
{"sequence": "GSLDALGSQPIHLWQFLKELLLKPHSYGRFIRWLNKEKGIFKIEDSAQVARLWGIRKNRPAMNYDKLSRSIRQYYKKGIIRKPDISQRLVYQFVHPI", "soluble on expression in E. coli": "soluble"}
{"sequence": "GSLVPELNEKDDDQVQKALASRENTQLMNRDNIEITVRDFKTLAPRRWLNDTIIEFFMKYIEKSTPNTVAFNSFFYTNLSERGYQGVRRWMKRKKTQIDKLDKIFTPINLNQSHWALGIIDLKKKTIGYVDSLSNGPNAMSFAILTDLQKYVMEESKHTIGEDFDLIHLDCPQQPNGYDCGIYVCMNTLYGSADAPLDFDYKDAIRMRRFIAHLILTDALK", "soluble on expression in E. coli": "soluble"}
{"sequence": "GSMDCEVNNGSSLRDECITNLLVFGFLQSCSDNSFRRELDALGHELPVLAPQWEGYDELQTDGNRSSHSRLGRIEADSESQEDIIRNIARHLAQVGDSMDRSIPPGLVNGLALQLRNTSRSEEDRNRDLATALEQLLQAYPRDMEKEKTMLVLALLLAKKVASHTPSLLRDVFHTTVNFINQNLRTYVRSLARNGMD", "soluble on expression in E. coli": "soluble"}
{"sequence": "GSQPAKKTYTWNTKEEAKQAFKELLKEKRVPSNASWEQAMKMIINDPRYSALAKLSEKKQAFNAYKVQTEK", "soluble on expression in E. coli": "soluble"}
{"sequence": "GSQVQLVESGGGLVQAGGSLRLSCAASGYAYTYIYMGWFRQAPGKEREGVAAMDSGGGGTLYADSVKGRMTISRDKGKNTVYLQMDSMKPEDTATYYCAAGGYELRDRTYGQWGQGTQVTVSS", "soluble on expression in E. coli": "soluble"}
{"sequence": "GSSHHHHHHMGNVFDYEDIQLIPAKCIVNSRSECDTTVTLGKHKFKLPVVPANMQTIIDERIATYLAENNYFYIMHRFQPEKRISFIRDMQSRGLIASISVGVKEDEYEFVQQLAAEHLTPEYITIDIAHGHSNAVINMIQHIKKHLPESFVIAGNVGTPEAVRELENAGADATKVGIGPGKVCITKIKTGFGTGGWQLAALRWCAKAASKPIIADGGIRTNGDVAKSIRFGATMVMIGSLFAGHEESPGETIEKDGKLYKEYFGSASEFQKGEKKNVEGKKMFVEHKGSLEDTLIEMEQDLQSSISYAGGTKLDSIRTVDYVVVKNSIFNGDKVY", "soluble on expression in E. coli": "soluble"}
{"sequence": "GSSHHHHHHSSGLVPRGSHMGSIIDAAAAAGPVVLMETAFRKAVESRQIPGAVIMARDASGNLNYTRCFGARTVRRDENNQLPPLQVDTPCRLASATKLLTTIMVLQCMERGLVDLDETVDRLLPDLSAMPVLEGFDDAGNARLRERRGKITLRHLLTHTSGLSYVFLHPLLREYMAQGYLQSAEKFGIQSRLAPPAVNDPGAEWIYGTNLDWAGKLVERATGLDLEQYLQENICAPLGITDMTFKLQQRPDMLARRADQTHRNSADGRLRYDDSVYFRADGEECFGGQGVFSSPGSYMKVLHSLLKRDGLLLQPQTVDLMFQPALEPRLEEQMNQHMDASPHINYGGPMPMVLRRSFGLGGIIALEDLDGENWRRKGSLTFGGGPNIVWQIDPKAGLCTLAFFQLEPWNDPVCRDLTRTFEHAIYAQYQQG", "soluble on expression in E. coli": "soluble"}
{"sequence": "GSSQISDMTRDGLANKALAVARTLADSPEIRQGLQKKPQESGIQAIAEAVRKRNDLLFIVVTDMQSLRYSHPEAQRIGQPFKGDDILKALNGEENVAINRGFLAQALRVFTPIYDENHKQIGVVAIGLELSRVTQQINDSRW", "soluble on expression in E. coli": "soluble"}
{"sequence": "GSSWSAINPEYAARMRIQNRFKTGLDIAKYTAAIMRKDMAEYDADSSVYTQSLGCWHGFIGQQKLISIKKHLKTTNKRYLYLSGWMVAALRSDFGPLPDQSMHEKTAVSGLIEELYTFLRQADARELDLLFTGLDAARAAGDKAKEAELLAQIDNFETHVVPIIADIDAGFGNAEATYLLAKKMIEAGACCIQIENQVSDEKQCGHQDGKVTVPHIDFLAKINAVRYAFLELGVDDGVIVARTDSLGAGLTKQIAVTNEPGDLGDLYNSFLDCEEISESELGNGDVVIKREGKLLRPKRLASNLFQFRKGTGEDRCVLDCITSLQNGADLLWIETEKPHVGQIKAMVDRIREVIPNAKLVYNNSPSFNWTLNFRQQVFDAFVAEGKDVSAYDRNKLMSVEYDDTELAKVADEKIRTFQRDGSAHAGIFHHLITLPTYHTAALSTDNLAKGYFADEGMLAYVKGVQRQELRQGIACVKHQNMAGSDIGDNHKEYFAGEAALK", "soluble on expression in E. coli": "not soluble"}
{"sequence": "GSTPHLVNLNEDPLMSECLLYHIKDGVTRVGQVDMDIKLTGQFIREQHCLFRSIPQPDGEVVVTLEPCEGAETYVNGKLVTEPLVLKSGNRIVMGKNHVFRFNH", "soluble on expression in E. coli": "soluble"}
{"sequence": "GTGGAAATTYGAACAGGTGAATTTGAAGATATTGCGGGCATTACCGACATCTTTAACTTTTATATTGAACAAACCAATGCACGCTTTGAGGAATTTCCATTTACTCTGGAAAATCGTGAGGAATGGTTCTCTCAGTTTTCTAGAACCGCCAAATATCAAATATATGTGGCTGTAGAAAACGGTGTGTTGCAAGGTTTTGCATGTTCCCAAAAGTACAGAGCAATACCAGCTTTTGATGACACTGTAGAGGTGAGCGTTTATCTGGCACAAGAAGCTAAAGGGAAAGGTTTAGGTTCGAAGCTTTATACTCAGCTGTTTTCATCCATTCGTGCTTATGGCGTCCATCGTATATTGTCGGGTGTTGCATTACCAAATGACGCATCAGTAGCATTACATAAACGGTTTGGTTTCCGAGAAGTCGGCATTTCCAACGAATATGCCAAGAAACATGGGCAGTACATCAGCTCGTTGTGGTTAGAAAAAGCGCTTAACGTAGAGTCCGCTTTATAA", "soluble on expression in E. coli": "not soluble"}
{"sequence": "GTIITVTAQANEKNTRTVSTAKGDKKIISVPLFEKEKGSNVKVAYGSAFLPDFIQLGDTVTVSGRVQAKESGEYVNYNFVFPTVEKVFITNDNSSQSQAKQDLFGGSEPIEVNSEDLPF", "soluble on expression in E. coli": "soluble"}
{"sequence": "GTIPKPTLWAEPDSVITQGSPVTLSCQGSLEAQEYRLYREKKSASWITRIRPELVKNGQFHIPSITWEHTGRYGCQYYSRARWSELSDPLVLVMTGAYPKPTLSAQPSPVVTSGGRVTLQCESQVAFGGFILCKEGEDEHPQCLNSQPHARGSSRAIFSVGPVSPNRRWSHRCYGYDLNSPYVWSSPSDLLELLVPG", "soluble on expression in E. coli": "soluble"}
{"sequence": "GTQGKVIKCKAAIAWKTGSPLCIEEIEVSPPKACEVRIQVIATCVCHTDINATDPKKKALFPVVLGHECAGIVESVGPGVTNFKPGDKVIPFFAPQCKRCKLCLSPLTNLCGKLRNFKYPTIDQELMEDRTSRFTCKGRSIYHFMGVSSFSQYTVVSEANLARVDDEANLERVCLIGCGFSSGYGAAINTAKVTPGSTCAVFGLGCVGLSAIIGCKIAGASRIIAIDINGEKFPKAKALGATDCLNPRELDKPVQDVITELTAGGVDYSLDCAGTAQTLKAAVDCTVLGWGSCTVVGAKVDEMTIPTVDVILGRSINGTFFGGWKSVDSVPNLVSDYKNKKFDLDLLVTHALPFESINDAIDLMKEGKSIRTILTF", "soluble on expression in E. coli": "soluble"}
{"sequence": "GWRAKVAGIDPKGSDTHYSEGSSYTFYPYGQAVLLPNIFAHRDVGNTACPGRYGYAQMDNIRNIAKQKYDSIRSGSGATAPAAPSTPSKPAPAPAAPAAPSAPAAPAGTNPIGLLSQGSTPANAGSLVGLAVAAATSLGLIGNLNNIGDVPVIGGLKLSQLQPIIGKIVELLGNNDISRVWRDVNSFAGAALGNARSPIAHYASATGTPIDYALFDNGIVISNPETGTNALWGTIGDLWAQQGFEAGPLGLPTSSVFEVDGLQRVNFQHGYITFNPTTSAVDIQVQ", "soluble on expression in E. coli": "not soluble"}
{"sequence": "GYDGVRIGQGYDIHQIRVGPPEDIVADTTADTAANTADPNKQSFKRLTIGGVPVETISVLSHSDGDVIFHALVDALLGGMSCSDLGTLFPDGSPKYKNKNSLSFLRYARLLLYKRNYAIANVDIIVIAEVPKISPIREEIVRNISSALGISESQVSLKGKTHEQLGPVGQKKAIECFANALLIRKQS", "soluble on expression in E. coli": "soluble"}
{"sequence": "HDLALSGNAYKVRLFLSLIGREATLRPVDFLNREHKTQAFLRMNPRGQIPVLEDGELQLGDSHAILVYLARRHADPVWYPLDPVSQGRIAYWLSYSANEVQNGPASARLITRFNLPLDREQTHQRGLEVLRLVDRHLAEHRWLAQGEQPSIADVALYPYLALAPEGGLALDHYPALNAWIARIRALPGYIPMPGL", "soluble on expression in E. coli": "not soluble"}
{"sequence": "HGSMEVPVSRAYGCFQEGPEAPISSACREAKRVGGAQAMYDWNAINQTPAGDNHQALVPDGALCGGGKAEFKGFNLARSDWRATSIVPDAKGDYEFVFQATAPHATKYFRLYVTRDGWNPSTPLKWSDLTLFGAYNGNPPLDVGNRYRMTMRLPAGKTGRHIIYSVWKRSDSEEAFYACSDVSFGH", "soluble on expression in E. coli": "not soluble"}
{"sequence": "HGSMTDTYLHETLVFDNKLSYIDNQRDTDGPAILLLPGWCHDHRVYKYLIQELDADFRVIVPNWRGHGLSPSEVPDFGYQEQVKDALEILDQLGVETFLPVSHSHGGWVLVELLEQAGPERAPRGIIMDWLMWAPKPDFAKSLTLLKDPERWREGTHGLFDVWLDGHDEKRVRHHLLEEMADYGYDCWGRSGRVIEDAYGRNGSPMQMMANLTKTRPIRHIFSQPTEPEYEKINSDFAEQHPWFSYAKLGGPTHFPAIDVPDRAAVHIREFATAIRQGQ", "soluble on expression in E. coli": "soluble"}
{"sequence": "HHHHHGSIMKVLRKGDRGDEVCQLQTLLNLCGYDVGKPDGIFGNNTFNQVVKFQKDNCLDSDGIVGKNTWAELFSKYSPPIPYKTIPMPTANKSRAAATPVMNAVENATGVRSQLLLTFASIESAFDYEIKAKTSSATGWFQFLTGTWKTMIENYGMKYGVLTDPTGALRKDPRISALMGAELIKENMNILRPVLKREPTDTDLYLAHFFGPGAARRFLTTGQNELAATHFPKEAQANPSIFYNKDGSPKTIQEVYNLMDGKVAAHRK", "soluble on expression in E. coli": "soluble"}
{"sequence": "HHHHHHHMTAPAADDRIDEIERAITKSRRYQTVAPATVRRLARAALVAARGDVPDAVKRTKRGLHEIYGAFLPPSPPNYAALLRHLDSAVDAGDDEAVRAALLRAMSVHISTRERLPHLDEFYRELFRHLPRPNTLRDLACGLNPLAAPWMGLPAETVYIASDIDARLVGFVDEALTRLNVPHRTNVADLLEDRLDEPADVTLLLKTLPCLETQQRGSGWEVIDIVNSPNIVVTFPTKSLGQRSKGMFQNYSQSFESQARERSCRIQRLEIGNELIYVIQK", "soluble on expression in E. coli": "soluble"}
